Measurements taken from article doi:10.1101/2021.08.31.458345.

How the values were obtained:
[1] = target: immature Gag polyprotein (pr55 Gag precursor) (HIV-1); assay: cryo-EM structure
[2] = target: gp41 subunit of ADA.CM.v4 Env (CTD truncated by 102 amino acids) (HIV-1 (subtype B isolate ADA)); assay: cryo-EM structure

immature Gag polyprotein (pr55 Gag precursor) (natural protein)
stoichiometry N [1]: 6

gp41 subunit of ADA.CM.v4 Env (CTD truncated by 102 amino acids) (domain or fragment)
stoichiometry N [2]: 3
